Test results taken from publication PMC2289477.

Target: profilin from bovine brain (profilin of the high-affinity profilactin complex) (bovine (endogenous in bovine brain)) (UniProt P02584)
Sequence of UniProt P02584 (P02584 whole entry, one chain of several): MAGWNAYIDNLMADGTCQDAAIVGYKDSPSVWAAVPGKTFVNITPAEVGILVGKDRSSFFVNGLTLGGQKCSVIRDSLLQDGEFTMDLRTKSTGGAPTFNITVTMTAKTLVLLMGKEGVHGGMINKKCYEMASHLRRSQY

For “actin from bovine brain (actin of the high-affinity profilactin complex) (from UniProt P60712 1-375) (natural protein)”, the stoichiometry N (actin/profilin molar ratio) was 1.
